Sequences and labels used below:
B1: glmS ribozyme (parent)
chain: AUAAAAGCGCCAGAACUACAGAAAUGUAGUUGACGAGGAGGAGGUUUAUCGAAUUUUCGGCGGAUGCCUCCAAA

± gives the standard error. For part of these data: Fewer inactive variants are shown than the library holds.

Holding throughout (conditions): with glucosamine-6-phosphate
The variants in data set [1] derive from B1. Put plainly: kcat; higher = faster cleavage; RNA array. Put shortly:
(§1)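 Barcoded ribozyme variants on sequenced MiSeq chips were transcribed in situ by E. coli RNA polymerase and followed at 37 °C through a hybridised Cy3 probe. Glucosamine-6-phosphate at 40 μM to 10 mM in HEPES/KCl/Mg(OAc)2 buffer was flowed in, and tiles were imaged over ~14 h. Signals were normalised to baseline and to non-cleaving reference variants, and per-tile medians were fit to one- or two-exponential decays to give kobs. Weighted Michaelis–Menten fits across concentrations gave kcat and KM.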

Data set [2] covers variants of B1. Put plainly: self-cleavage kobs at 40 uM GlcN6P; higher = faster cleavage; RNA array. Put shortly: as §1
The variants in data set [3] derive from B1. Put plainly: KM; higher = weaker cofactor use; RNA array. An outline of the steps: as §1
In data set [4] the parent is B1. Nature of the data set: self-cleavage kobs at 160 uM GlcN6P; higher = faster cleavage; RNA array. Put shortly:
as §1

In data set [5] the parent is B1. Nature of the data set: self-cleavage kobs at 640 uM GlcN6P; higher = faster cleavage; RNA array. An outline of the steps:
as §1

In data set [6] the parent is B1. Nature of the data set: self-cleavage kobs at 2500 uM GlcN6P; higher = faster cleavage; RNA array. Put shortly: as §1
Data set [7] covers variants of B1. Nature of the data set: self-cleavage kobs at 10000 uM GlcN6P; higher = faster cleavage; RNA array. An outline of the steps: as §1

Usually kcat stands for the number of substrate molecules converted per active site and unit of time at saturation. For the variant AUAAAAGCGCCGGAACUACAGAAAUGUAGUUGACGAGGAGGAGGUUUGUCGAAUUUUCGGCGGAUGCCUCCAAA [A12G A48G], the kcat with glucosamine-6-phosphate [1] was found to be 2.09e-05 ± 3.3e-06 s⁻¹. The “self-cleavage kobs at 40 uM GlcN6P” value with glucosamine-6-phosphate [2] is < 1e-05 s⁻¹.
The KM is the concentration of substrate that gives half-maximal velocity. For the variant AUAAAAGCGCCAGAACUACAGAAAUGUAGUUUACGAGGUGGAGGUUUAUCGAAUUUUCGGCGGAUGCCUCCAAA [G32U A39U], in the data set with glucosamine-6-phosphate [1], the catalytic constant (kcat) amounted to 0.000723 ± 0.00022 s⁻¹. Moreover, in the data set with glucosamine-6-phosphate [3], the Michaelis-Menten constant (KM) turned out to be 8400 ± 3500 µM. The “self-cleavage kobs at 160 uM GlcN6P” value with glucosamine-6-phosphate [4] is 3.38e-05 ± 1e-05 s⁻¹. Moreover, the “self-cleavage kobs at 640 uM GlcN6P” value in the data set with glucosamine-6-phosphate [5] came out at 5.81e-05 ± 5.6e-06 s⁻¹. For the same variant, the “self-cleavage kobs at 2500 uM GlcN6P” value with glucosamine-6-phosphate [6] stood at 0.000148 ± 1.2e-05 s⁻¹. For the same variant, in the data set with glucosamine-6-phosphate [7], the “self-cleavage kobs at 10000 uM GlcN6P” value amounted to 0.000411 ± 3.1e-05 s⁻¹.
For AUAAAAGCGCCAGAACUACAGAAAUGUAGUUGACGAGGAGGAGGUUUAUUGAAUUUUCGGCGGAUUCCUGCAAA [C50U G66U C70G], in the data set with glucosamine-6-phosphate [1], the kcat was determined as 4.59e-05 ± 1.9e-05 s⁻¹.
Turning to AUAAAAGCGCCAGAACUACAGAAAUGUAGUUGACGAGGAGGAGGUUUAUAGAAUUUUCGGCGGAUGCCUCUAAA [C50A C71U], the kcat in the data set with glucosamine-6-phosphate [1] was 1.86e-05 ± 6.3e-07 s⁻¹. For the same variant, the KM with glucosamine-6-phosphate [3] turned out to be 296 ± 82 µM. The “self-cleavage kobs at 10000 uM GlcN6P” value with glucosamine-6-phosphate [7] was determined as 1.86e-05 ± 8.6e-06 s⁻¹.
For the variant AUAAAAGCGCCAGAACUACAGAAAUGUAGUUGACGAGGAGGAGGUUUAUCGAAUUUUCGGCGCAUGCCUACAAA [G63C C70A], the kcat with glucosamine-6-phosphate [1] was 1.89e-05 ± 5.1e-06 s⁻¹.
In the case of AUAAAAGCGCCAGAACUACAGAAAUGUAGUUGACGAGGAUGGGGUUUAUCGAAUUUUCGGCGGAUGCCUCCAAA [G40U A42G], in the data set with glucosamine-6-phosphate [1], the kcat is 0.00742 ± 0.00078 s⁻¹. Also, the KM in the data set with glucosamine-6-phosphate [3] amounted to 1330 ± 220 µM. Further, in the data set with glucosamine-6-phosphate [2], the “self-cleavage kobs at 40 uM GlcN6P” value came out at 0.000214 ± 4e-05 s⁻¹. Besides, the “self-cleavage kobs at 160 uM GlcN6P” value with glucosamine-6-phosphate [4] is 0.00072 ± 0.00018 s⁻¹. For the same variant, the “self-cleavage kobs at 640 uM GlcN6P” value with glucosamine-6-phosphate [5] came to 0.00267 ± 0.00058 s⁻¹. The “self-cleavage kobs at 2500 uM GlcN6P” value in the data set with glucosamine-6-phosphate [6] stood at 0.00567 ± 0.001 s⁻¹. Also, the “self-cleavage kobs at 10000 uM GlcN6P” value with glucosamine-6-phosphate [7] came to 0.00603 ± 0.001 s⁻¹.
Consider AUAAAAGCGCCAGCACUACAGAAAUGUAGUAGACGAGGAGGAGGUUUAUCGAAUUUUCGGCGGCUGCCUCCAAA [A14C U31A A64C], for which, in the data set with glucosamine-6-phosphate [1], the kcat is 1.75e-05 ± 3.8e-06 s⁻¹. Also, the “self-cleavage kobs at 160 uM GlcN6P” value in the data set with glucosamine-6-phosphate [4] is < 1e-05 s⁻¹.
For the variant AUAAAAGCGGUAGAACUACAGAAAUGUAGUUGACGAGGAGGAGGUUUAUCGAAUUUUCGGCGGAUGGCUCCAAA [C10G C11U C67G], the kcat in the data set with glucosamine-6-phosphate [1] is 3.06e-05 ± 8.7e-06 s⁻¹. Moreover, in the data set with glucosamine-6-phosphate [5], the “self-cleavage kobs at 640 uM GlcN6P” value was determined as 5.14e-05 ± 2.4e-05 s⁻¹.
In the case of AUAAAAGCGCCAGAACUACAGAAAUGUAGUUGACGAGGGGGAGGUUUAUCGAAUAUUCGGCGGAUGCCUCCAAA [A39G U55A], the kcat with glucosamine-6-phosphate [1] was found to be 0.0158 ± 0.0027 s⁻¹. In addition, the KM in the data set with glucosamine-6-phosphate [3] came out at 399 ± 110 µM. Moreover, the “self-cleavage kobs at 40 uM GlcN6P” value with glucosamine-6-phosphate [2] was determined as 0.00131 ± 0.00023 s⁻¹. The “self-cleavage kobs at 160 uM GlcN6P” value with glucosamine-6-phosphate [4] is 0.00551 ± 0.0011 s⁻¹. In addition, in the data set with glucosamine-6-phosphate [5], the “self-cleavage kobs at 640 uM GlcN6P” value stood at 0.0115 ± 0.0025 s⁻¹. Further, the “self-cleavage kobs at 2500 uM GlcN6P” value in the data set with glucosamine-6-phosphate [6] amounted to 0.0107 ± 0.0029 s⁻¹. Further, in the data set with glucosamine-6-phosphate [7], the “self-cleavage kobs at 10000 uM GlcN6P” value worked out at 0.017 ± 0.0039 s⁻¹.
For the variant AUAAAAGCGCCAGCACUACAGAAAUGUAGUUGACGCGGAGGAGGUUUAUCGAAUUUUCGGCGGAUGCCUCCAAA [A14C A36C], the kcat in the data set with glucosamine-6-phosphate [1] is < 1e-05 s⁻¹. For the same variant, in the data set with glucosamine-6-phosphate [2], the “self-cleavage kobs at 40 uM GlcN6P” value is < 1e-05 s⁻¹. In addition, in the data set with glucosamine-6-phosphate [4], the “self-cleavage kobs at 160 uM GlcN6P” value is < 1e-05 s⁻¹.
Take AUAAAAGCGCCAGAACUACAGAAAUGUAGUUGACGAGGUGGAGUUUUAUCGAAUUUUCGGCGGAUGCCUCCAAA [A39U G44U]: in the data set with glucosamine-6-phosphate [1], the kcat stood at 0.00106 ± 0.00049 s⁻¹. The “self-cleavage kobs at 40 uM GlcN6P” value with glucosamine-6-phosphate [2] stood at 8.33e-05 ± 6.8e-06 s⁻¹. Further, the “self-cleavage kobs at 160 uM GlcN6P” value in the data set with glucosamine-6-phosphate [4] is 0.000143 ± 1.3e-05 s⁻¹. The “self-cleavage kobs at 640 uM GlcN6P” value with glucosamine-6-phosphate [5] amounted to 0.000437 ± 3e-05 s⁻¹. Moreover, the “self-cleavage kobs at 2500 uM GlcN6P” value in the data set with glucosamine-6-phosphate [6] came out at 0.000955 ± 9.3e-05 s⁻¹.

Source of the values: the supplement of paper PMC7125110.
